Results as given in IntAct's records for PubMed 31515488.

B1: Kappa-casein (Homo sapiens), P07498 (parent)
chain: MKSFLLVVNALALTLPFLAVEVQNQKQPACHENDERPFYQKTAPYVPMYYVPNSYPYYGTNLYQRRPAIAINNPYVPRTYYANPAVVRPHAQIPQRQYLPNSHPPTVVRRPNLHPSFIAIPPKKIQDKIIIPTINTIATVEPTPAPATEPTVDSVVTPEAFSESIITSTPETTTVAVTPPTA
B2: Segment polarity protein dishevelled homolog DVL-2 (Homo sapiens), O14641 (parent)
chain: MAGSSTGGGGVGETKVIYHLDEEETPYLVKIPVPAERITLGDFKSVLQRPAGAKYFFKSMDQDFGVVKEEISDDNARLPCFNGRVVSWLVSSDNPQPEMAPPVHEPRAELAPPAPPLPPLPPERTSGIGDSRPPSFHPNVSSSHENLEPETETESVVSLRRERPRRRDSSEHGAGGHRTGGPSRLERHLAGYESSSTLMTSELESTSLGDSDEEDTMSRFSSSTEQSSASRLLKRHRRRRKQRPPRLERTSSFSSVTDSTMSLNIITVTLNMEKYNFLGISIVGQSNERGDGGIYIGSIMKGGAVAADGRIEPGDMLLQVNDMNFENMSNDDAVRVLRDIVHKPGPIVLTVAKCWDPSPQAYFTLPRNEPIQPIDPAAWVSHSAALTGTFPAYPGSSSMSTITSGSSLPDGCEGRGLSVHTDMASVTKAMAAPESGLEVRDRMWLKITIPNAFLGSDVVDWLYHHVEGFPERREARKYASGLLKAGLIRHTVNKITFSEQCYYVFGDLSGGCESYLVNLSLNDNDGSSGASDQDTLAPLPGATPWPLLPTFSYQYPAPHPYSPQPPPYHELSSYTYGGGSASSQHSEGSRSSGSTRSDGGAGRTGRPEERAPESKSGSGSESEPSSRGGSLRRGGEASGTSDGGPPPSRGSTGGAPNLRAHPGLHPYGPPPGMALPYNPMMVVMMPPPPPPVPPAVQPPGAPPVRDLGSVPPELTASRQSFHMAMGNPSEFFVDVM
partner: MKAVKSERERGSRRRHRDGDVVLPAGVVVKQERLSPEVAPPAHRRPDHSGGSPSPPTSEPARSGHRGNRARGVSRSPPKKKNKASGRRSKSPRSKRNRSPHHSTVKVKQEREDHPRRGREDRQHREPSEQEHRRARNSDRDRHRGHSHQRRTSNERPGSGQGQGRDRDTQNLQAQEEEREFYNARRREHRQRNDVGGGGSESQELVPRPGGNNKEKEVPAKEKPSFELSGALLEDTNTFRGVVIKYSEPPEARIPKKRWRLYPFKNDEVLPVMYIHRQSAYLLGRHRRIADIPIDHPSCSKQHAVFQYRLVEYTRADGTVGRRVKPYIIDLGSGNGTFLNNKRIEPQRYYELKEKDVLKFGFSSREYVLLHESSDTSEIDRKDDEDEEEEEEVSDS
B3: Epidermal growth factor receptor substrate 15-like 1 (Homo sapiens), Q9UBC2 (parent)
chain: MAAPLIPLSQQIPTGNSLYESYYKQVDPAYTGRVGASEAALFLKKSGLSDIILGKIWDLADPEGKGFLDKQGFYVALRLVACAQSGHEVTLSNLNLSMPPPKFHDTSSPLMVTPPSAEAHWAVRVEEKAKFDGIFESLLPINGLLSGDKVKPVLMNSKLPLDVLGRVWDLSDIDKDGHLDRDEFAVAMHLVYRALEKEPVPSALPPSLIPPSKRKKTVFPGAVPVLPASPPPKDSLRSTPSHGSVSSLNSTGSLSPKHSLKQTQPTVNWVVPVADKMRFDEIFLKTDLDLDGYVSGQEVKEIFMHSGLTQNLLAHIWALADTRQTGKLSKDQFALAMYFIQQKVSKGIDPPQVLSPDMVPPSERGTPGPDSSGSLGSGEFTGVKELDDISQEIAQLQREKYSLEQDIREKEEAIRQKTSEVQELQNDLDRETSSLQELEAQKQDAQDRLDEMDQQKAKLRDMLSDVRQKCQDETQMISSLKTQIQSQESDLKSQEDDLNRAKSELNRLQQEETQLEQSIQAGRVQLETIIKSLKSTQDEINQARSKLSQLHESRQEAHRSLEQYDQVLDGAHGASLTDLANLSEGVSLAERGSFGAMDDPFKNKALLFSNNTQELHPDPFQTEDPFKSDPFKGADPFKGDPFQNDPFAEQQTTSTDPFGGDPFKESDPFRGSATDDFFKKQTKNDPFTSDPFTKNPSLPSKLDPFESSDPFSSSSVSSKGSDPFGTLDPFGSGSFNSAEGFADFSQMSKPPPSGPFTSSLGGAGFSDDPFKSKQDTPALPPKKPAPPRPKPPSGKSTPVSQLGSADFPEAPDPFQPLGADSGDPFQSKKGFGDPFSGKDPFVPSSAAKPSKASASGFADFTSVS
partner: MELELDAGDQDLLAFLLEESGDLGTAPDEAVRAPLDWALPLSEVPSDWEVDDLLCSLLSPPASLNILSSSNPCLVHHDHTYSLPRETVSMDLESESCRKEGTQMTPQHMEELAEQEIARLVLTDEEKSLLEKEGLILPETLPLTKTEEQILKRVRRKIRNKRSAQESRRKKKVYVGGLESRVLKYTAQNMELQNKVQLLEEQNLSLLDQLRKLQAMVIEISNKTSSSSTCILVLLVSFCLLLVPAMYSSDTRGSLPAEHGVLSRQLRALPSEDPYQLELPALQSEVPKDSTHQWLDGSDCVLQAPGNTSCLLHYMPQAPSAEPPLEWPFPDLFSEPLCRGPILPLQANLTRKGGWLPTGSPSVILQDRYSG
B4: Lipopolysaccharide-induced tumor necrosis factor-alpha factor (Homo sapiens), Q99732 (parent)
chain: MSVPGPYQAATGPSSAPSAPPSYEETVAVNSYYPTPPAPMPGPTTGLVTGPDGKGMNPPSYYTQPAPIPNNNPITVQTVYVQHPITFLDRPIQMCCPSCNKMIVSQLSYNAGALTWLSCGSLCLLGCIAGCCFIPFCVDALQDVDHYCPNCRALLGTYKRL
B5: Zinc finger protein 774 (Homo sapiens), Q6NX45 (parent)
chain: MWLGTSGKSGLPGHCLENPLQECHPAQLEEWALKGISRPSVISQPEQKEEPWVLPLQNFEARKIPRESHTDCEHQVAKLNQDNSETAEQCGTSSERTNKDLSHTLSWGGNWEQGLELEGQHGTLPGEGQLESFSQERDLNKLLDGYVGEKPMCAECGKSFNQSSYLIRHLRTHTGERPYTCIECGKGFKQSSDLVTHRRTHTGEKPYQCKGCEKKFSDSSTLIKHQRTHTGERPYECPECGKTFGRKPHLIMHQRTHTGEKPYACLECHKSFSRSSNFITHQRTHTGVKPYRCNDCGESFSQSSDLIKHQRTHTGERPFKCPECGKGFRDSSHFVAHMSTHSGERPFSCPDCHKSFSQSSHLVTHQRTHTGERPFKCENCGKGFADSSALIKHQRIHTGERPYKCGECGKSFNQSSHFITHQRIHLGDRPYRCPECGKTFNQRSHFLTHQRTHTGEKPFHCSKCNKSFRQKAHLLCHQNTHLI

Variants of: B1
Details: with dmrtb_human DMRTB1, Q96MA1
Sequence of dmrtb_human DMRTB1, Q96MA1 (Q96MA1 whole entry): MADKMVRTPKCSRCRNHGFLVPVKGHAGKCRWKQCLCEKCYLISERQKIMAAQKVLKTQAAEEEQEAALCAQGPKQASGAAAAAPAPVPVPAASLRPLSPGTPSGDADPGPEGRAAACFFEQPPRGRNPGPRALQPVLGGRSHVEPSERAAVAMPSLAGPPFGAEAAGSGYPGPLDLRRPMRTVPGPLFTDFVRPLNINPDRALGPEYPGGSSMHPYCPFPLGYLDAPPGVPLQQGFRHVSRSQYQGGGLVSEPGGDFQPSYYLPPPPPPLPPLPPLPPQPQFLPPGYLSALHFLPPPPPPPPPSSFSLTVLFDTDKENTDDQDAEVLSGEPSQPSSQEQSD

Variant | effect of a mutation on the interaction
A145T | with no effect

Variants of: B2
Details: with snip1_human SNIP1, Q8TAD8

Variant | effect of a mutation on the interaction
T535I | with no effect
A53V | with no effect

Variants of: B3
Details: with creb3_human CREB3, O43889

Variant | effect of a mutation on the interaction
P356L | with no effect

Variants of: B4
Details: with bag3_human BAG3, O95817
Sequence of bag3_human BAG3, O95817 (O95817 whole entry): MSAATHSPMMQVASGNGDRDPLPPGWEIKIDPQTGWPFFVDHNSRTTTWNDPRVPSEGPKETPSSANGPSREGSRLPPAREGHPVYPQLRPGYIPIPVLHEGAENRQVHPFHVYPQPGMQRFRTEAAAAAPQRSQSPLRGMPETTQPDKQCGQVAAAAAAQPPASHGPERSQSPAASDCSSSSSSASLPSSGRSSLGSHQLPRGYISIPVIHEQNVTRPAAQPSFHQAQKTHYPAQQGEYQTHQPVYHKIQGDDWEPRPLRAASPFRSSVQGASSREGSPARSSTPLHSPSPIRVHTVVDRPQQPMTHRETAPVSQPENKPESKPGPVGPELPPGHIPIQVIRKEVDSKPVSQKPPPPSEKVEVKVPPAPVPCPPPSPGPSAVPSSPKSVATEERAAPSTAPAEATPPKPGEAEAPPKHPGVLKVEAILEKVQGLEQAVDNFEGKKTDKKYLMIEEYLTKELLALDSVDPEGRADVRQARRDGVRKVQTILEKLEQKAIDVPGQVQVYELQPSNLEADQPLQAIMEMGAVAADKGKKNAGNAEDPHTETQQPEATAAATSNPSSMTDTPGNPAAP

Variant | effect of a mutation on the interaction
I92V | with no effect
C137Y | with no effect

Variants of: B4
Details: with reep6_human REEP6, Q96HR9
Sequence of reep6_human REEP6, Q96HR9 (Q96HR9 whole entry): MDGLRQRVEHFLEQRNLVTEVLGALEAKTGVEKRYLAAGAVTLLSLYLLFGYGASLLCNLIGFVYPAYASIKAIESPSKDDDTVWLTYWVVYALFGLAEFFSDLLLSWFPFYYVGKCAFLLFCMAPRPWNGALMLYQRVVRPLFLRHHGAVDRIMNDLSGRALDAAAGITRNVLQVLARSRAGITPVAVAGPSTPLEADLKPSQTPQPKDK

Variant | effect of a mutation on the interaction
C137Y | disrupting interaction strength

Variants of: B4
Details: with stam2_human STAM2, O75886

Variant | effect of a mutation on the interaction
C137Y | with no effect

Variants of: B4
Details: with hgs_human HGS

Variant | effect of a mutation on the interaction
C137Y | with no effect

Variants of: B5
Details: with ldoc1_human LDOC1, O95751
Sequence of ldoc1_human LDOC1, O95751 (O95751 whole entry): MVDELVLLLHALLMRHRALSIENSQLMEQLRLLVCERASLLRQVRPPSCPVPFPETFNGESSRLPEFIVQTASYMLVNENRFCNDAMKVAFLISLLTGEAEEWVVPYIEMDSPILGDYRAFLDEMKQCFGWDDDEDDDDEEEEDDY

Variant | effect of a mutation on the interaction
V147I | with no effect
R469C | disrupting interaction strength

Variants of: B5
Details: with trim1_human MID2, Q9UJV3
Sequence of trim1_human MID2, Q9UJV3 (Q9UJV3 whole entry): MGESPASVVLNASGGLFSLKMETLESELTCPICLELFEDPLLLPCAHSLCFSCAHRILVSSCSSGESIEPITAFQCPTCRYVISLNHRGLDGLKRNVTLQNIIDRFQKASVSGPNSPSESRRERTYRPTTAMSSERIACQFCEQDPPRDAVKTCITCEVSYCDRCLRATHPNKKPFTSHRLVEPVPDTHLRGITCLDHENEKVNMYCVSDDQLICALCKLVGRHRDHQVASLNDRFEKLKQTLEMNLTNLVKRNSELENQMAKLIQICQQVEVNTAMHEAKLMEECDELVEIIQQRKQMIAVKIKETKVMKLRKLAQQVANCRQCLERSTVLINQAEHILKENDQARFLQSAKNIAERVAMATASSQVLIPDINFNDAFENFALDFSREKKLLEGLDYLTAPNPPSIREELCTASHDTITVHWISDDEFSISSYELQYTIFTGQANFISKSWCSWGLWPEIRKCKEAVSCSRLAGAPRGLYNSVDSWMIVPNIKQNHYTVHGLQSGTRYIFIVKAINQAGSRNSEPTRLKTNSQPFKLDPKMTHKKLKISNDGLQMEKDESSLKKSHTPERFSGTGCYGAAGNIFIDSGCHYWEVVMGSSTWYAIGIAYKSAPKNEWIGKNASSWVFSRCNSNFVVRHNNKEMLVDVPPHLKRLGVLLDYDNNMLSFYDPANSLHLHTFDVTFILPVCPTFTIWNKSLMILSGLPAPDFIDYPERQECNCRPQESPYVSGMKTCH

Variant | effect of a mutation on the interaction
P65L | with no effect
